Laboratory results: paper PMC8730730

Target: enzymatically deglycosylated clinical-grade rshACE2 (human) (UniProt Q9BYF1)
Test: BLI

Sequence of UniProt Q9BYF1 (Q9BYF1 18-740 limits assumed): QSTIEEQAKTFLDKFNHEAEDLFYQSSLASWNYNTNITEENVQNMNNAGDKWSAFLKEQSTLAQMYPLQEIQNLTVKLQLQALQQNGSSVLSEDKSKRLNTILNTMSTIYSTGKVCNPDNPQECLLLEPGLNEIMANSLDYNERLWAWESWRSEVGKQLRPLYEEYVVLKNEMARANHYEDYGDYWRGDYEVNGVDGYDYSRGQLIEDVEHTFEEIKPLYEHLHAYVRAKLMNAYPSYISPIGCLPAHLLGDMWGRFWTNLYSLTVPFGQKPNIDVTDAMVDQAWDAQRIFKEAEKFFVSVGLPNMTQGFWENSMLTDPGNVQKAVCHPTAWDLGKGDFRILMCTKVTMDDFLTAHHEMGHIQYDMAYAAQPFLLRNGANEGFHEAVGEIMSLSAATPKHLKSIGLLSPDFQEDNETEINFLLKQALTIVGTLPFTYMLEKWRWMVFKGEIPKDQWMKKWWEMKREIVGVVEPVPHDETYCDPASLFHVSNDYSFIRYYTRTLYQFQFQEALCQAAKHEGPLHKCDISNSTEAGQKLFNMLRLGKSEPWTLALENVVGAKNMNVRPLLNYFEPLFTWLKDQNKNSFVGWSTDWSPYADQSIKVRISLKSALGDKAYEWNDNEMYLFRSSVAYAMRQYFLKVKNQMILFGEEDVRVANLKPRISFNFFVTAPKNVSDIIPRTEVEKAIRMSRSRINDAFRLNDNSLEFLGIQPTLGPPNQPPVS

Substance: SARS-CoV-2 Spike receptor binding domain (residues R319-F541) (from UniProt P0DTC2 319-541) (domain or fragment)
- Kd: 5.1 nM
